The text below walks through data of paper PMC10805311, “Pseudomonas aeruginosa two-component system CprRS regulates HigBA expression and bacterial cytotoxicity in response to LL-37 stress” (PLOS Pathogens, 2024).

Data set [1] deals with biofilms of uropathogenic E. coli. The following applies: cited from earlier work. The source says: In the field of microbiology and immunology, the interaction between host antimicrobial peptides and pathogenic bacteria has been a subject of extensive research. The success of bacterial infections depends on a delicate balance of signals exchanged between microbes and hosts. Cationic antimicrobial peptides, including defensins such as α-defensins, β-defensins, and cathelicidin LL-37, are crucial components of innate host defense against bacterial infections. Numerous studies have shown that LL-37 acts as a shield between the host and the external environment, preventing bact ...

In data set [2] the test system is T1, CprR H214A H215A (Pseudomonas aeruginosa), ORF:b369b159.
T1 sequence: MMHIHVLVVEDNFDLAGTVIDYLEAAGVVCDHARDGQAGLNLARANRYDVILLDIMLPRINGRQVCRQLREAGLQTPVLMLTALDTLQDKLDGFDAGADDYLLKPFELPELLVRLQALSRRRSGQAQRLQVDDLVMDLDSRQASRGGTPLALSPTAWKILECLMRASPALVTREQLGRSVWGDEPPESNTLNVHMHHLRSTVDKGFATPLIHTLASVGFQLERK
In words: EMSA.

For data set [3], the system named is T2, CprR N188A N189A (Pseudomonas aeruginosa), ORF:b369b159.
T2 sequence: T1 sequence with N189A, A215H
In words: EMSA.

Data set [4] concerns T3, CprR V192A V193A (Pseudomonas aeruginosa), ORF:b369b159.
T3 sequence: T1 sequence with V193A, A215H
In words: EMSA.

Data set [5] has as its system T4, CprR S187A S188A (Pseudomonas aeruginosa), ORF:b369b159.
T4 sequence: T1 sequence with S188A, A215H
In words: EMSA.

Data set [6] deals with T5, CprR (Pseudomonas aeruginosa (PAO1 or PA14; strain of cloned gene not stated)), ORF:b369b159.
T5 sequence: T1 sequence with A215H
The data set can be described thus: EMSA.

The test system of data set [7] is T6, CprR R198A R199A (Pseudomonas aeruginosa), ORF:b369b159.
T6 sequence: T1 sequence with R199A, A215H
In words: EMSA.

The subject of data set [8] is T7, CprR W180A W181A (Pseudomonas aeruginosa), ORF:b369b159.
T7 sequence: T1 sequence with W181A, A215H
The data set can be described thus: EMSA.

Data set [9] deals with CprRD53A / higB DNA fragments. In words: EMSA, CprRD53A binding to higB promoter DNA. Also on record: species or system P. aeruginosa. The following applies: 4°C 30 min. The protocol: (§1) The gene promoters were obtained by PCR. The CprR and DNA fragment were mixed in different ratios (total 10 μL buffer, 25 mM Tris–HCl pH 7.5, 150 mM NaCl, 1 mM MgCl2, 2 mM KCl) and incubated at 4°C for 30 min, then the samples were analyzed by 8% polyacrylamide gel electrophoresis in 0.5 × TBE (Tris/boric acid/EDTA) buffer at 130 V for 120 min. The bands were staining with EB and visualized through BioRad imager.

Data set [10] concerns CprR / higB DNA fragments. In words: EMSA, CprR binding to higB promoter DNA. Conditions: 4°C 30 min. On the set-up: species or system P. aeruginosa. On the procedure:
as §1

Positions count from the first letter of the chain named.

For the molecule Cecropin A, in [1], the biofilm disruption result is “disrupt biofilms of uropathogenic E. coli”.

As to “CTGGTCGAGTCGATGATGGTGGCCGGGCGCTGAGGCCGGGTTTCCCTCTATAAAACGCCAGCGCTCGTCGCTGGCGTTTTCGTTTCCGCCTGTTCAATTGTCCGCCTCTATGGGGACCATGCTTGTCTTTTGCCAAGAAGAAAACAATAATCAATCTCATTATCGTCTGGTGAGGTTGCC (double strand) [higB promoter (PhigB)]”, the binding result in data set [2] is “binds more weakly”; in [3] it was “binds more weakly”; in [4], “binds more weakly”; in [5], “binds more weakly”; in data set [6], “binds”; in data set [7], “binds more weakly”. Besides, the binding result in [8] is given as “binds more weakly”.

On to `CC(=O)OP(=O)(O)O` [acetyl phosphate (ACP), acetyl phosphate], for which the “effect of acetyl phosphate on DNA binding of the D53A mutant” value in [9] was “unable to exhibit this enhanced binding”. Also, the figures for the “effect of acetyl phosphate on DNA binding of CprR” value in [10] and in data set [10] (listed as AcP) were “enhanced the binding of CprR to its target higB DNA fragments” and “enhanced the DNA-binding ability of CprR”, respectively.
